Test in all cases: G' assay
Assay [1] deals with T1, GST-Syntrophin 1 alpha PDZ domain 1 (Homo sapiens (Human)), Q13424.
T1 chain: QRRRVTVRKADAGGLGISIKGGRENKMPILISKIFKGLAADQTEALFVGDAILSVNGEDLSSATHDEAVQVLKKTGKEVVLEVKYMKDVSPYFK

The target in assay [2] is T2, GST-APXL-1 PDZ domain 1 (Homo sapiens (Human)), Q13796.
T2 chain: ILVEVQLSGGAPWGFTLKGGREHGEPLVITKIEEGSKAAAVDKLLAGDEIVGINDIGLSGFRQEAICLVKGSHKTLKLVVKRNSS

Assay [3] addresses T3, GST-PDZK1 PDZ domains 2, 3, 4, Q5T2W1.
T3 chain: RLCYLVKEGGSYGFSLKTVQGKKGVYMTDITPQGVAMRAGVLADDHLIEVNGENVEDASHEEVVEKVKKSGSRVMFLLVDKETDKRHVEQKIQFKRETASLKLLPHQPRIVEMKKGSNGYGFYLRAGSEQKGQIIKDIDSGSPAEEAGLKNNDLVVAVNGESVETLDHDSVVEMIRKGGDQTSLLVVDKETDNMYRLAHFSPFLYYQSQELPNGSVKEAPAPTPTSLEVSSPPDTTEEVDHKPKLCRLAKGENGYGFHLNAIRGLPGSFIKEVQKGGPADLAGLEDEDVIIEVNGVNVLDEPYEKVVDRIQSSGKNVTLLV

Assay [4] addresses GST-KIAA807 [GST: P08515].
Assay [5] concerns the target T4, GST-KIAA0807(S) PDZ domain 1 (Homo sapiens (Human)), Q6P0Q8.
T4 chain: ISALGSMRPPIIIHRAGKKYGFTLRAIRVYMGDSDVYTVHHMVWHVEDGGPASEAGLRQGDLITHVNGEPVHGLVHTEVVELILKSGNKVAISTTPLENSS

Assay [6] deals with T5, GST-Shank 1 PDZ domain 1 (Homo sapiens (Human)), Q9UPX8.
T5 chain: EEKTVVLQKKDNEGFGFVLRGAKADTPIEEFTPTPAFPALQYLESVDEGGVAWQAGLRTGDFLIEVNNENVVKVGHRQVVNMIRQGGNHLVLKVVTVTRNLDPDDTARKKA

Assay [7] concerns the target GST-PAR3 PDZ domain 3 (Homo sapiens (Human)), Q8TEW0.
For assay [8], the target named is T6, GST-KIAA1719 PDZ domain 6 (Homo sapiens (Human)), Q9C0E4.
T6 chain: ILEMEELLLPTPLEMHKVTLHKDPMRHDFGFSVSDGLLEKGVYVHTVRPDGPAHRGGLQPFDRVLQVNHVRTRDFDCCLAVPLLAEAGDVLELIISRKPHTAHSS

Assay [9] deals with T7, GST-MUPP1 PDZ domain 7 (Homo sapiens (Human)), O75970.
T7 chain: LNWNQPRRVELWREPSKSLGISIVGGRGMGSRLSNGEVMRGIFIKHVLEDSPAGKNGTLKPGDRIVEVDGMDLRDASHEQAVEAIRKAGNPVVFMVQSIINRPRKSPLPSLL

Assay [10] has as its target T8, GST-MUPP1 PDZ domain 3 (Homo sapiens (Human)), O75970.
T8 chain: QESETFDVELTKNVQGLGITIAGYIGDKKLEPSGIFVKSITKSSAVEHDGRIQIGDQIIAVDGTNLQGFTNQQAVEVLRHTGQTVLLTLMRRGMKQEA

The target in assay [11] is T9, GST-MUPP1 PDZ domain 9 (Homo sapiens (Human)), O75970.
T9 chain: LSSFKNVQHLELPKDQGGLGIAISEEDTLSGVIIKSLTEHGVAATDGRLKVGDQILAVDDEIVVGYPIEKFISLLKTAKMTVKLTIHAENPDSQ

In assay [12] the target is T10, GST-INADL PDZ domain 3 (Homo sapiens (Human)), Q8NI35.
T10 chain: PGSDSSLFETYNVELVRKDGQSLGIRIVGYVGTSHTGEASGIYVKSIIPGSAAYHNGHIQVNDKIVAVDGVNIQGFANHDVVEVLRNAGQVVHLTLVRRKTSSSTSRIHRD

The target of assay [13] is T11, GST-PTPL1 PDZ domain 4 (Homo sapiens (Human)), Q12923.
T11 chain: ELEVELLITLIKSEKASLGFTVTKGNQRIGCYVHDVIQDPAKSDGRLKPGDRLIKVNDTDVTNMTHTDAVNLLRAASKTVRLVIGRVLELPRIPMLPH

Assay [14] addresses T12, GST-AF6 PDZ domain 1 (Homo sapiens (Human)), P55196.
T12 chain: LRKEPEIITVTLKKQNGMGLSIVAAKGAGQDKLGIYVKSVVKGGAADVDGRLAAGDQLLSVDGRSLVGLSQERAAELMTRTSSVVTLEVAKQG

The target in assay [15] is GST-KIAA1634 PDZ domain 1 (Homo sapiens (Human)), Q5TCQ9.
Chain of GST-KIAA1634 PDZ domain 1 (Homo sapiens (Human)), Q5TCQ9 (Q5TCQ9 401-502): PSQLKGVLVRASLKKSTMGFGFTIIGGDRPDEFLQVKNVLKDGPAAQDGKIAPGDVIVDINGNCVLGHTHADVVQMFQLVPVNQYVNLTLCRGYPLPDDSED
The target in assay [16] is T13, GST-MINT1 PDZ domains 1, 2, Q02410.
T13 chain: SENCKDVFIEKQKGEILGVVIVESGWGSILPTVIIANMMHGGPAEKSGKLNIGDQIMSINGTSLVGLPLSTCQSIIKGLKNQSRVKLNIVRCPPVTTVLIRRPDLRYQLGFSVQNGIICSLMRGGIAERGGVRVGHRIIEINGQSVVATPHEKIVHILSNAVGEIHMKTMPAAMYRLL

Assay [17] addresses T14, GST-HEMBA 1003117 PDZ domain 1 (Homo sapiens (Human)), Q96JH8.
T14 chain: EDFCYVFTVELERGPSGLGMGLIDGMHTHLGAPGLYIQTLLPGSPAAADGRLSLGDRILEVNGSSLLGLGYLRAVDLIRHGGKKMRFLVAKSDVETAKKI

Assay [18] concerns the target T15, GST-FLJ 10324 PDZ domain 1 [GST: P08515].
T15 chain: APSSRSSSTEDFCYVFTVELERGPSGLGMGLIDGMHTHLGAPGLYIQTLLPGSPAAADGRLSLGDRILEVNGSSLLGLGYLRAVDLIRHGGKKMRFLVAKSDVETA

The target in assay [19] is T16, GST-KIAA0382 PDZ domain 1 (Canis lupus familiaris (Dog) (Canis familiaris)), A0A8I3.
T16 chain: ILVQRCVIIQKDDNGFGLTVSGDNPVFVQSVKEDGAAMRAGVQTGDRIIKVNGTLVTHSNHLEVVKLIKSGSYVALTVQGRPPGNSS

Assay [20] deals with T17, GST-EZRIN Binding Protein 50 PDZ domain 2 (Homo sapiens (Human)), O14745.
T17 chain: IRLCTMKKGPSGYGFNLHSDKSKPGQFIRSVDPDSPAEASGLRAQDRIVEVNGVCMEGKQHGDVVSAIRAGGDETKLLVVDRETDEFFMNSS

For assay [21], the target named is T18, GST-LIM-RIL PDZ domain 1 (Homo sapiens (Human)), P50479.
T18 chain: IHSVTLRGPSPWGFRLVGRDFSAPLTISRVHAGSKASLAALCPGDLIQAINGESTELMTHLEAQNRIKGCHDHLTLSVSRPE

Assay [22] addresses T19, GST-LIM Mystique PDZ domain 1 (Homo sapiens (Human)), Q96JY6.
T19 chain: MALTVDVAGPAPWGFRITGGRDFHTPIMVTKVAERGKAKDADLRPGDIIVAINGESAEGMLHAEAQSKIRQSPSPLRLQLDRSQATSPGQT

Assay [23] addresses GST-KIAA0147 PDZ domain 1 (Homo sapiens (Human)), Q14160.
Assay [24] addresses T20, GST-Shank 3 PDZ domain 1 (human (hypothetical, computer cloned)), Q9BYB0.
T20 chain: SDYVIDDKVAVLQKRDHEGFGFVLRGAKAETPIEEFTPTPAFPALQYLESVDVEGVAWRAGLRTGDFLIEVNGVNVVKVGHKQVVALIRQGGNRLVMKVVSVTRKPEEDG

For assay [25], the target named is GST-KIAA1634 PDZ domain 5 (Homo sapiens (Human)), Q5TCQ9.
Chain of GST-KIAA1634 PDZ domain 5 (Homo sapiens (Human)), Q5TCQ9 (Q5TCQ9 other isoform, or with tags, fused parts or gaps): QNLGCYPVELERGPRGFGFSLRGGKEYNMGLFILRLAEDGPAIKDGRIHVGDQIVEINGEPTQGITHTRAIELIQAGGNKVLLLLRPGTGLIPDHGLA
In assay [26] the target is GST-Atrophin-1 Interacting Protein PDZ domain 5 (Rattus norvegicus (Rat)), O88382.
Chain of GST-Atrophin-1 Interacting Protein PDZ domain 5 (Rattus norvegicus (Rat)), O88382 (O88382 1128-1225): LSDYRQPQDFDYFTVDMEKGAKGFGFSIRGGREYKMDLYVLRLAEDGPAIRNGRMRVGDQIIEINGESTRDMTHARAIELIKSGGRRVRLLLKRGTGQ
Assay [27] concerns the target T21, GST-EZRIN Binding Protein 50 PDZ domain 1 (Homo sapiens (Human)), O14745.
T21 chain: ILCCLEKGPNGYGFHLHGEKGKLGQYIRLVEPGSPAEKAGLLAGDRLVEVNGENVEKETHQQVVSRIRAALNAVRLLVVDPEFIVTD

The target in assay [28] is GST-BAI-1 Associated Protein PDZ domain 6 (Homo sapiens (Human)), Q96QZ7.
Chain of GST-BAI-1 Associated Protein PDZ domain 6 (Homo sapiens (Human)), Q96QZ7 (Q96QZ7 1143-1233): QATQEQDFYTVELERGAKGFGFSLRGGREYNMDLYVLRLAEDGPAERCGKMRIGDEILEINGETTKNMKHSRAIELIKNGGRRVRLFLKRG
Assay [29] addresses T22, GST-MINT1 PDZ domain 2 (Mus musculus (Mouse)), B2RUJ5.
T22 chain: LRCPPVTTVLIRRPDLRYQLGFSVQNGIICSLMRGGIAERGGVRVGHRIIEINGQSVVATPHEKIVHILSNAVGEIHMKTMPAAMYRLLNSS

The target of assay [30] is T23, GST-MUPP1 PDZ domain 11 (Homo sapiens (Human)), O75970.
T23 chain: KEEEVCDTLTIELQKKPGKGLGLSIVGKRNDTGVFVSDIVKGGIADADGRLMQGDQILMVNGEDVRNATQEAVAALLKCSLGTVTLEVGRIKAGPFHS
Note: key of the grades not given here.

Chain of GST-KIAA807 [GST: P08515] (P08515 whole entry, the tested form may be a part): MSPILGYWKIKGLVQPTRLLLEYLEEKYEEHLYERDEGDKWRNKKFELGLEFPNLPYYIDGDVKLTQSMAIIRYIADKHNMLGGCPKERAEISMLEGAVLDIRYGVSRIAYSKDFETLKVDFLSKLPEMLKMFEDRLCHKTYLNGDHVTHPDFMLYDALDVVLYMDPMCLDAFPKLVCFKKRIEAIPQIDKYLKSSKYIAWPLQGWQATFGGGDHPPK
Chain of GST-KIAA0147 PDZ domain 1 (Homo sapiens (Human)), Q14160 (Q14160 other isoform, or with tags, fused parts or gaps): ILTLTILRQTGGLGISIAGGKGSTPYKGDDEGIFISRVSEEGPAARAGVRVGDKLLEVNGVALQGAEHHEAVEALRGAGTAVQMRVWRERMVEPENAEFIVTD
Chain of GST-PAR3 PDZ domain 3 (Homo sapiens (Human)), Q8TEW0 (Q8TEW0 579-681): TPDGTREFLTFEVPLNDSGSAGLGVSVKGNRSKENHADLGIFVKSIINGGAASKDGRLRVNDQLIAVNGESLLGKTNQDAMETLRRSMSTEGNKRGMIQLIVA

B1: GABA transporter 3 (peptide)
peptide: DAKLKSDGTIAAITEKETHF
modifications: not checked
Turning to B1, the Classification in assay [1], in [2], in assay [3], in [4], in assay [5] and in assay [6] was 1 A450 class in each case.

B2: Glycophorin C (peptide)
peptide: QGDPALQDAGDSSRKEYFI
modifications: not checked
In the case of B2, the Classification is 2 A450 class in assay [7] and 1 A450 class in [8].

B3: bone morphogenetic protein receptor (peptide)
peptide: TALRIKKTLAKMVESQDVKI
modifications: not checked
On to B3, for which the Classification in [9], in assay [10], in assay [5] and in [11] was 1 A450 class each time.

B4: JAM (junctional adhesion molecule) (peptide)
peptide: YSQPSARSEGEFKQTSSFLV
modifications: not checked
As to B4, the Classification in assay [12], in [13] and in [14] was 1 A450 class each time.

B5: Nectin 2 (peptide)
peptide: SSPDSSYQGKGFVMSRAMYV
modifications: not checked
As to B5, the Classification in assay [15] came to 1 A450 class; in assay [16], 2 A450 class; in [14], 2 A450 class.

B6: ephrin B1 (peptide)
peptide: PVYIVQEMPPQSPANIYYKV
modifications: not checked
As to B6, the Classification in assay [9] came to 1 A450 class; in [13] it was 2 A450 class; in assay [4] it was 1 A450 class; in assay [10], 1 A450 class; in assay [5] it was 1 A450 class; in [11], 1 A450 class.

B7: DOCK2 (peptide)
peptide: LASKSAEEGKQIPDSLSTDL
modifications: not checked
B7: the Classification in assay [2] is 2 A450 class; in assay [12], 1 A450 class; in assay [17], 1 A450 class; in assay [4], 5 A450 class; in assay [18], 1 A450 class; in assay [19], 1 A450 class. For the same molecule, the Classification in assay [20] was 2 A450 class; in assay [21], 1 A450 class; in [22] it was 1 A450 class; in assay [23], 1 A450 class; in assay [24], 1 A450 class; in assay [25], 1 A450 class. Moreover, the Classification came to 4 A450 class in [5]; 1 A450 class in assay [6]; 1 A450 class in assay [26]; 1 A450 class in assay [27]; 1 A450 class in assay [28].

B8: ephrin A2 (peptide)
peptide: RIAYSLLGLKDQVNTVGIPI
modifications: not checked
Consider B8, for which the Classification in assay [29], in assay [19], in [30] and in [8] was 1 A450 class each time.

Source of the values: patent publication US20050282743A1, “Molecular interactions in cells” (Arbor Vita Corporation, priority 2001, published 2005).
